Laboratory results reported in the Human Domainome abundance scans (Beltran et al. 2025).
± gives the uncertainty stated by the source.

B1: Dynamin-binding protein, residues 242 to 304; numbered along this chain, Q6XZF7 (parent)
chain: EEPGTYGVALYRFQALEPNELDFEVGDKIRILATLEDGWLEGSLKGRTGIFPYRFVKLCPDTR

Variants of: B1
Test: abundance fitness (aPCA) (normalised: wild type 0, dead -1); higher = more abundant; growth selection in yeast, the domain comes from the species named
Conditions: Homo sapiens

Q: Which abundance fitness does the source give for EEPGTYGVALYRFQALEPGELDFEVGDKIRILATLEDGWLEGSLKGRTGIFPYRFVKLCPDTR [N19G] here?
A: -0.055 ± 0.048

Q: For EEPGTYGVALYRFQALEPQELDFEVGDKIRILATLEDGWLEGSLKGRTGIFPYRFVKLCPDTR [N19Q], which abundance fitness is on record?
A: -0.188 ± 0.23

Q: With EEPGTYGVALYRFQALEPAELDFEVGDKIRILATLEDGWLEGSLKGRTGIFPYRFVKLCPDTR [N19A] as the variant, how does the abundance fitness read?
A: -0.18 ± 0.06

Q: For EEPGTYGVALYRFQALEPCELDFEVGDKIRILATLEDGWLEGSLKGRTGIFPYRFVKLCPDTR [N19C], which abundance fitness is on record?
A: -0.518 ± 0.074

Q: Which abundance fitness does the source give for EEPGTYGVALYRFQALEPTELDFEVGDKIRILATLEDGWLEGSLKGRTGIFPYRFVKLCPDTR [N19T] here?
A: -0.223 ± 0.076

Q: For EEPGTYGVALYRFQALEPYELDFEVGDKIRILATLEDGWLEGSLKGRTGIFPYRFVKLCPDTR [N19Y], which abundance fitness is on record?
A: -0.299 ± 0.059

Q: Which abundance fitness does the source give for EEPGTYGVALYRFQALEPFELDFEVGDKIRILATLEDGWLEGSLKGRTGIFPYRFVKLCPDTR [N19F] here?
A: -0.297 ± 0.061

Q: For EEPGTYGVALYRFQALEPVELDFEVGDKIRILATLEDGWLEGSLKGRTGIFPYRFVKLCPDTR [N19V], which abundance fitness is on record?
A: -0.563 ± 0.068

Q: For EEPGTYGVALYRFQALEQNELDFEVGDKIRILATLEDGWLEGSLKGRTGIFPYRFVKLCPDTR [P18Q], which abundance fitness is on record?
A: -0.042 ± 0.2

Q: Which abundance fitness does the source give for EEPGTYGVALYRFQALEYNELDFEVGDKIRILATLEDGWLEGSLKGRTGIFPYRFVKLCPDTR [P18Y] here?
A: -0.473 ± 0.077

Q: With EEPGTYGVALYRFQALESNELDFEVGDKIRILATLEDGWLEGSLKGRTGIFPYRFVKLCPDTR [P18S] as the variant, how does the abundance fitness read?
A: -0.113 ± 0.05

Q: With EEPGTYGVALYRFQALENNELDFEVGDKIRILATLEDGWLEGSLKGRTGIFPYRFVKLCPDTR [P18N] as the variant, how does the abundance fitness read?
A: -0.275 ± 0.071

Q: With EEPGTYGVALYRFQALEVNELDFEVGDKIRILATLEDGWLEGSLKGRTGIFPYRFVKLCPDTR [P18V] as the variant, how does the abundance fitness read?
A: -0.332 ± 0.062

Q: With EEPGTYGVALYRFQALERNELDFEVGDKIRILATLEDGWLEGSLKGRTGIFPYRFVKLCPDTR [P18R] as the variant, how does the abundance fitness read?
A: -0.04 ± 0.053

Q: With EEPGTYGVALYRFQALETNELDFEVGDKIRILATLEDGWLEGSLKGRTGIFPYRFVKLCPDTR [P18T] as the variant, how does the abundance fitness read?
A: -0.333 ± 0.094

Q: Which abundance fitness does the source give for EEPGTYGVALYRFQALEWNELDFEVGDKIRILATLEDGWLEGSLKGRTGIFPYRFVKLCPDTR [P18W] here?
A: -0.424 ± 0.11

Q: Which abundance fitness does the source give for EEPGTYGVALYRFQALEPNMLDFEVGDKIRILATLEDGWLEGSLKGRTGIFPYRFVKLCPDTR [E20M] here?
A: 0.023 ± 0.11

Q: Which abundance fitness does the source give for EEPGTYGVALYRFQALEPNLLDFEVGDKIRILATLEDGWLEGSLKGRTGIFPYRFVKLCPDTR [E20L] here?
A: -0.067 ± 0.056

Q: Which abundance fitness does the source give for EEPGTYGVALYRFQALEPNILDFEVGDKIRILATLEDGWLEGSLKGRTGIFPYRFVKLCPDTR [E20I] here?
A: -0.65 ± 0.095

Q: Which abundance fitness does the source give for EEPGTYGVALYRFQALEPNFLDFEVGDKIRILATLEDGWLEGSLKGRTGIFPYRFVKLCPDTR [E20F] here?
A: 0.155 ± 0.056

Q: With EEPGTYGVALYRFQALEPNNLDFEVGDKIRILATLEDGWLEGSLKGRTGIFPYRFVKLCPDTR [E20N] as the variant, how does the abundance fitness read?
A: -0.227 ± 0.071

Q: With EEPGTYGVALYRFQALEPNSLDFEVGDKIRILATLEDGWLEGSLKGRTGIFPYRFVKLCPDTR [E20S] as the variant, how does the abundance fitness read?
A: -0.468 ± 0.059

Q: Which abundance fitness does the source give for EEPGTYGVALYRFQALEPNVLDFEVGDKIRILATLEDGWLEGSLKGRTGIFPYRFVKLCPDTR [E20V] here?
A: -0.703 ± 0.086

Q: Which abundance fitness does the source give for EEPGTYGVALYRFQALEPNGLDFEVGDKIRILATLEDGWLEGSLKGRTGIFPYRFVKLCPDTR [E20G] here?
A: -0.246 ± 0.057

Q: With EEPGTYGVALYRFQALEPNQLDFEVGDKIRILATLEDGWLEGSLKGRTGIFPYRFVKLCPDTR [E20Q] as the variant, how does the abundance fitness read?
A: 0.069 ± 0.12

Q: With EEPGTYGVALYRFQALEPNPLDFEVGDKIRILATLEDGWLEGSLKGRTGIFPYRFVKLCPDTR [E20P] as the variant, how does the abundance fitness read?
A: -1.03 ± 0.35

Q: For EEPGTYGVALYRFQALEPNDLDFEVGDKIRILATLEDGWLEGSLKGRTGIFPYRFVKLCPDTR [E20D], which abundance fitness is on record?
A: -0.631 ± 0.098

Q: For EEPGTYGVALYRFQALEPNCLDFEVGDKIRILATLEDGWLEGSLKGRTGIFPYRFVKLCPDTR [E20C], which abundance fitness is on record?
A: -0.014 ± 0.05

Q: With EEPGTYGVALYRFQALEPNTLDFEVGDKIRILATLEDGWLEGSLKGRTGIFPYRFVKLCPDTR [E20T] as the variant, how does the abundance fitness read?
A: 0.06 ± 0.069

Q: Which abundance fitness does the source give for EEPGTYGVALYRFQALEPNYLDFEVGDKIRILATLEDGWLEGSLKGRTGIFPYRFVKLCPDTR [E20Y] here?
A: 0.059 ± 0.056

Q: For EEPGTYGVALYRFQALEPNALDFEVGDKIRILATLEDGWLEGSLKGRTGIFPYRFVKLCPDTR [E20A], which abundance fitness is on record?
A: -0.163 ± 0.076

Q: With EEPGTYGVALYRFQALEPNKLDFEVGDKIRILATLEDGWLEGSLKGRTGIFPYRFVKLCPDTR [E20K] as the variant, how does the abundance fitness read?
A: -0.068 ± 0.11

Q: For EEPGTYGVALYRFQALEPNRLDFEVGDKIRILATLEDGWLEGSLKGRTGIFPYRFVKLCPDTR [E20R], which abundance fitness is on record?
A: -0.258 ± 0.062

Q: Which abundance fitness does the source give for EEPGTYGVALYRFQALEPNELDGEVGDKIRILATLEDGWLEGSLKGRTGIFPYRFVKLCPDTR [F23G] here?
A: -0.682 ± 0.094

Q: For EEPGTYGVALYRFQALEPNELDHEVGDKIRILATLEDGWLEGSLKGRTGIFPYRFVKLCPDTR [F23H], which abundance fitness is on record?
A: -0.787 ± 0.14

Q: Which abundance fitness does the source give for EEPGTYGVALYRFQALEPNELDIEVGDKIRILATLEDGWLEGSLKGRTGIFPYRFVKLCPDTR [F23I] here?
A: -0.165 ± 0.062

Q: For EEPGTYGVALYRFQALEPNELDAEVGDKIRILATLEDGWLEGSLKGRTGIFPYRFVKLCPDTR [F23A], which abundance fitness is on record?
A: -0.585 ± 0.1

Q: Which abundance fitness does the source give for EEPGTYGVALYRFQALEPNELDCEVGDKIRILATLEDGWLEGSLKGRTGIFPYRFVKLCPDTR [F23C] here?
A: -0.717 ± 0.09

Q: Which abundance fitness does the source give for EEPGTYGVALYRFQALEPNELDLEVGDKIRILATLEDGWLEGSLKGRTGIFPYRFVKLCPDTR [F23L] here?
A: -0.136 ± 0.065

Q: With EEPGTYGVALYRFQALEPNELDDEVGDKIRILATLEDGWLEGSLKGRTGIFPYRFVKLCPDTR [F23D] as the variant, how does the abundance fitness read?
A: -0.867 ± 0.14

Q: With EEPGTYGVALYRFQALEPNELDMEVGDKIRILATLEDGWLEGSLKGRTGIFPYRFVKLCPDTR [F23M] as the variant, how does the abundance fitness read?
A: -0.227 ± 0.13

Q: For EEPGTYGVALYRFQALEPNELDKEVGDKIRILATLEDGWLEGSLKGRTGIFPYRFVKLCPDTR [F23K], which abundance fitness is on record?
A: -0.13 ± 0.17

Q: For EEPGTYGVALYRFQALEPNELDEEVGDKIRILATLEDGWLEGSLKGRTGIFPYRFVKLCPDTR [F23E], which abundance fitness is on record?
A: -0.94 ± 0.39
